From patent US20220195028A1 (Janssen / Centocor, published 2022)

Legend:
recombinant human TNFα [1] = target: T1, recombinant human TNFα (human, UniProt P01375 77-233); test: cell-based or functional assay
recombinant human TNFα [2] = target: T1, recombinant human TNFα; test: 125I-TNFα binding to plate-coated p55-sf2 in presence of varying amounts of mAb in hybridoma supernatant
Method: (§1) 50:l of p55-sf2 at 0.5:g/ml in PBS was added to Optiplates to coat the wells during a one-hour incubation at 37° C. Serial dilutions of the eight TNV cell supernatants were prepared in 96-well round-bottom plates using PBS/0.1% BSA as diluent. […] The mixture was preincubated for one hour at RT. The coated Optiplates were washed to remove unbound p55-sf2 and 50:l of the ¹²⁵I-TNFα/cell supernatant mixture was transferred to the Optiplates. After 2 hrs at RT, Optiplates were washed three times with PBS-Tween. 100:l of Microscint-20 was added and the cpm bound determined using the TopCount gamma counter.
A simple binding assay was done to determine whether the eight TNV mAbs contained in hybridoma cell supernatant were capable of blocking TNFα binding to receptor. The concentrations of the TNV mAbs in their respective cell supernatants were first determined by standard ELISA analysis for human IgG.

recombinant human TNFα [3] = target: T1, recombinant human TNFα; test: competition radioligand assay: mAb in hybridoma supernatant preincubated with 5 ng/ml 125I-TNFα, then binding of TNFα to plate-coated p55-sf2 counted as cpm bound
Method: Varying amounts of hybridoma cell supernatants containing known amounts of TNV mAb were preincubated with a fixed concentration (5 ng/ml) of ¹²⁵I-labeled TNFα. […] The amount of TNFα that bound to the p55 receptor in the presence of the mAbs was determined after washing away the unbound material and counting using a gamma counter. Although eight TNV mAb samples were tested in these experiments, for simplicity three of the mAbs that were shown by DNA sequence analyses to be identical to one of the other TNV mAbs (see Section 5.2.2) are not shown here. Each sample was tested in duplicate. The results shown are representative of two independent experiments.
as §1

Binder | neutralizing TNFα bioactivity (potency relative to TNV14) (recombinant human TNFα [1]) | fold better at blocking TNF binding to p55-sf2 (against TNV118 and TNV14) (recombinant human TNFα [2]) | IC50 (read off the curve) (recombinant human TNFα [3])
TNV148 (antibody, human IgG1, V domains shown, also called GenTNV148.26.12; C420A) VH: QVQLVESGGGVVQPGRSLRLSCAASGFIFSSYAMHWVRQAPGNGLEWVAFMSYDGSNKKYADSVKGRFTISRDNPKNTLYLQMNSLRAEDTAVYYCARDRGIAAGGNYYYYGMDVWGQGTTVTVSS VL: EIVLTQSPATLSLSPGERATLSCRASQSVYSYLAWYQQKPGQAPRLLIYDASNRATGIPARFSGSGSGTDFTLTISSLEPEDFAVYYCQQRSNWPPFTFGPGTKVDIKR | 4 fold | ~4 fold | ~4 ng/mL
TNV86 (antibody, human IgG1, V domains shown, also called GenTNV86.14.34; C417A) VH: QVQLVESGGGVVQPGRSLRLSCAASGFIFSSYAMHWVRQAPGNGLEWVAFMSYDGSNKKYADSVKGRFTISRDNPKNTLYLQMNSLRAEDTAVYYCARDRGIAAGGNYYYYGMDVWGQGTTVTVSS VL: EIVLTQSPATLSLSPGERATLSCRASQSVYSYLAWYQQKPGQAPRLLIYDASNRATGIPARFSGSGSGTDFTLTISSLEPEDFAVYYCQQRSNWPPFTFGPGTKVDIKR |  | ~4 fold | 
